Results from publication PMC12478167.

Columns and labels:
[1] = target: Myc-tagged LilrB2 expressed in HEK293 cells (human) (UniProt Q8N423); test: immunostaining of cells or tissue
[2] = target: HA-PirB expressed in HEK293 cells (mouse) (UniProt P97484); test: immunostaining of cells or tissue
[3] = target: endogenous PirB in mouse cortical neurons (mouse (endogenous in cortical neurons)) (UniProt P97484); test: immunostaining of cells or tissue
[4] = target: sLilrB2, a soluble Fc-tagged form of LilrB2 containing the entire extracellular domain (human) (UniProt Q8N423); test: SPR

Kd [1]: 0.037 µM | Kd [2]: 0.056 µM | Kd [3]: 0.38 µM | Kd [4]: 0.003 µM
Substance: C4d, terminal split product of complement component C4 (from UniProt P0C0L4 957-1336) (domain or fragment)
